Results taken from patent US12679888B2, “IL-18 binding protein (IL-18BP) and antibodies for treating inflammatory diseases” (AB2 BIO SA, priority 2015, dated 2026).
Where two headings read alike, the source gives them in different places.

Tests used:
[1] = Bioavailability of r-hIL-18BP by i.p. and s.c. route; format: in vivo, mouse
Procedure: (§1) No validated animal model has been described for this condition. In the collagen-induced arthritis murine model the active dose for r-hIL-18BP administered intraperitoneally (i.p.) was determined to be 1 mg/Kg body weight. […] Altogether the expected pharmacologically active dose for a “humanized mice” treated by s.c. route with r-hIL-18BP is round 4.85 mg/kg. […] Although the guidance was initially written for extrapolating animal doses to healthy volunteers, its principles can be applied also to patients. […] Those doses will be likely also ineffective in AoSD patients considering that blood levels of IL-18 in AoSD are higher than those reported in the two above mentioned conditions.

[2] = tested on: C57BL/6J mice; assay: Four-day exacerbation/tobacco smoke mouse model (COPD exacerbation); format: in vivo
Procedure: The aim of the study was to determine the effect of IL-18BP, administered at three dose levels, by the sub-cutaneous route, on Polyinosinic:polycytidylic acid-induced exacerbation of tobacco-smoke induced pulmonary inflammation, in C57BL/6J mice. High level of dexamethasone, dosed orally, was included in the study as a reference agent.
(§2) Mice received either vehicle (PBS) or IL-18BP. IL-18BP was given subcutaneously to 3 groups of animals respectively at 1, 3 or 10 mg/kg 2 h prior to the initial tobacco smoke exposure from Day 1 to Day 4. Mice received orally either vehicle or dexamethasone (10 mg/kg) 1 h prior to each twice daily exposure. Mice received by intranasal administration either the vehicle or Polyinosinic:polycytidylic acid (2 mg/kg) 2 h prior to the initial air or tobacco smoke exposure on Day 4 to induce lung inflammation exacerbation. Tobacco smoke exposure was performed during the morning and afternoon as follow: Day 1 for 15 min, Day 2 for 25 min, Day 3 for 30 min and Day 4 for 30 min.
(§3) Following the above treatments, animals were terminally anaesthetised on Day 5. After that, a blood sample was taken via the sub-clavian artery (plasma) and the animals were bronchoalveloar lavaged with 3×0.4 ml of PBS for further cellular and cytokine/mediator analysis. Bronchoalveolar lavage supernatants were stored at −80° C. for cytokine/mediator analysis. Cells recovered from the BALF were counted using the Sysmex cell counter.

[3] = target: T1, IL-18 (Homo sapiens, UniProt Q14116); conditions: cited from earlier work
T1 sequence (Q14116 37-193): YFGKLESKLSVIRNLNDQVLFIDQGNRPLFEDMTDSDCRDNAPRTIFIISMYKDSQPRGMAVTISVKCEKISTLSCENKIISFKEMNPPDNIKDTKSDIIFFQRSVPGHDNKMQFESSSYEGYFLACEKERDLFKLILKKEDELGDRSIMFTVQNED

[4] = tested on: RA and Pso patients; assay: Previous human studies with r-hIL-18BP in RA and Pso patients; format: in vivo; conditions: 20 mg 3 times a week
Procedure: as §1

[5] = target: T1, IL-18; assay: Dissociation constant (Kd) used for dose selection, human; format: binding
Procedure: as §1

[6] = tested on: G-CSF; assay: G-CSF in BALF by ELISA, exacerbation/tobacco smoke mouse model; format: in vivo
Procedure: as §2, §3
G-CSF is well acknowledged as key cytokine stimulating the survival, proliferation, differentiation, and function of neutrophil precursors and mature neutrophils. […] The presence of G-CSF in the BALF was monitored with a commercially available ELISA kit.

[7] = 3 and 10 mg/kg s.c., compared to positive control dexamethasone

B1: IL-18BP: soluble glycoprotein of 164 amino acids produced from a Chinese Hamster Ovary cell line; isoform a, SEQ ID NO 7 (protein, listed as Homo sapiens)
chain: TPVSQTTTAATASVRSTKDPCPSQPPVFPAAKQCPALEVTWPEVEVPLNGTLSLSCVACSRFPNFSILYWLGNGSFIEHLPGRLWEGSTSRERGSTGTQLCKALVLEQLTPALHSTNFSCVLVDPEQVVQRHVVLAQLWAGLRATLPPTQEALPSSHSSPQQQG
modifications: CHO glycosylation; MISC_FEATURE - Human interleukin-18 binding protein isoform a
For B1, the bioavailability ([1]; i.p. route) was ~100%, the bioavailability ([1]; s.c. route) was 55% and the “exacerbated inflammation inhibition (total cell infiltration)” value ([2]; 10 mg/kg s.c.) was “clear and statistically relevant efficacy”. The “neutrophil infiltration in the lung airway space” value (“neutrophil infiltration” below) ([2]; 10 mg/kg s.c.) was “best statistical efficacy”, the “neutrophil infiltration” value [2, 7] was “statistically valuable efficacy” and the “total cell infiltration in the lung airway space” value [2, 7] was “statistically valuable efficacy”. The weight loss ([2]; 3 and 10 mg/kg s.c., large majority of mice) was 6-7%, the tolerability ([2]; IL-18BP s.c.) was “well tolerated” and the weight loss mitigation ([2]; IL-18BP s.c., Students t-test and ANOVA) was “mitigated by IL-18BP even though both Students t-test and ANOVA statistical analyses were not significant”. The “neutrophil infiltration” value ([2]; IL-18BP s.c., day 5) was “inhibited”, the “total cell infiltration in the lung airway space” value ([2]; IL-18BP s.c., day 5) was “significant mitigation of total cell infiltration” and the Kd ([3]; BIAcore measurements, read-out: KD reported in the literature (Kim et al 2000)) was 0.4 nM. The Kd ([3]; IL-18-IL-18BP complex, stoichiometry 1:1, read-out: Dissociation constant KD as calculated by Kim et al 2000) was 0.4 nM, the clinical efficacy [4] was “no efficacy” and the Kd [5] was 0.16 nM. The “G-CSF release in the lung airways (BALF)” value ([6]; IL-18BP s.c., day 5) was “mitigates G-CSF release in the lung airways” and the “G-CSF release in the lung airways (BALF)” value ([6]; three tested doses 1, 3 or 10 mg/kg s.c.) was “statistically relevant effect”.
